This experiment has as its target human plasma-derived coagulation Factor X (FX) (human) (UniProt P00742). Nature of the experiment: cell-based or functional assay.

human plasma-derived coagulation Factor X (FX) (human), sequence (P00742 41-179, chain 1 of 2): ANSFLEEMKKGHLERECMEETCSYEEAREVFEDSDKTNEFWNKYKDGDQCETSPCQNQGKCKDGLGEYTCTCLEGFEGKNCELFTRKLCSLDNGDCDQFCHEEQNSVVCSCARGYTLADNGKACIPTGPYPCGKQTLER
human plasma-derived coagulation Factor X (FX) (human), sequence (P00742 183-488, chain 2 of 2): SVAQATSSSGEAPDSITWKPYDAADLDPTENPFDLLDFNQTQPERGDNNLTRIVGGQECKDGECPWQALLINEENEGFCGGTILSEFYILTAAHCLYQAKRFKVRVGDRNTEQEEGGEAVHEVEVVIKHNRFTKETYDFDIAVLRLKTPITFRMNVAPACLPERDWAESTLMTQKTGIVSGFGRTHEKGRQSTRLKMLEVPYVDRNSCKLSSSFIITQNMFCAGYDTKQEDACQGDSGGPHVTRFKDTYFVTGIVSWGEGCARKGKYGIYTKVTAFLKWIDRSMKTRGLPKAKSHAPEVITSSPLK

With “Emicizumab sequence identical analogue (SIA) (bispecific antibody)”, the KM of FX activation by 0.1 nM FIXa with phospholipid vesicles, antibody at 300 nM is 0.0535 µM.
